Measurements taken from patent publication US6825001B2, “DNA molecules and protein displaying improved triazine compound degrading ability” (Regents of the University of Minnesota, priority 1997, dated 2004).
“Also recorded” adds a separate entry of the source.

Columns and labels:
[1] = biological target: T1, wild-type AtzA protein (Pseudomonas sp., UniProt P72156); experiment: substrate range of wild-type AtzA protein; type: biochemical, Pseudomonas sp. strain ADP
T1 construct: made in house; host or cells: E. coli
From the text: Enzyme Kinetics. […] HPLC analysis was done as described above.

[2] = atrazine-degrading activity of AtzA homologs compared with wild type; details: compared with wild-type AtzA or parent homolog
Procedure: Serial dilutions of the transformation reaction were plated onto LB plates containing 50 μg/ml ampicillin, the remainder of the transformation was stored in 25% glycerol and frozen at −80° C.
Environ. Microbiol., 61, 1451-1457 (1995), at a final concentration of 500 μg/ml to produce an opaque suspension of small particles in the clear agar. […] Positive colonies that most rapidly formed the largest clear zones were selected initially for further analysis. The (approximately) 40 best colonies were picked, pooled, grown in the presence of 50 μg/ml ampicillin and plasmid prepared from them.
Enzyme Kinetics. […] The reactions were stopped by boiling the reaction tubes at specific times, the addition of 500 μl acetonitrile and rapid freezing at −80° C. Thawed samples were centrifuged at 14,000 rpm for 10 minutes, the supernatants were filtered through a […] filter, and placed into crimp-seal HPLC vials. HPLC analysis was done as described above.

[3] = TERBUTHYLAZINE-degrading activity of AtzA homologs; type: biochemical; details: compared with wild-type enzyme
Procedure: TERBUTHYLAZINE was incorporated in solid LB medium at a final concentration of about 400-500 μg/ml to produce an opaque suspension of sample particles in the clear agar. […] HPLC analysis was performed with a Hewlett Packard HP 1090 Liquid Chromatograph system equipped with a photodiode array detector and interfaced to an HP 79994A Chemstation. TERBUTHYLAZINE and its metabolites were resolved by using an analytical C^18 reverse-phase Nova-Pak HPLC column (4 μm-diameter spherical packing, 150 by 3.9 mm; Waters Chromatography, Milford, Mass.) and an acetonitrile (ACN) gradient, in water, at a flow rate of 1.0 ml min^−1. Linear gradients of 0 to 6 min, 10 to 25% ACN; 6 to 21 min, 25 to 65% ACN; 21 to 23 min, 65 to 100% ACN; and 23 to 25 min, 100% ACN were used. Spectral data of the column eluent were acquired between 200 and 400 nm (12-nm bandwidth per channel) at a sampling frequency of 640 ms. Spectra were referenced against a signal of 500 nm.
Sample 1 is a control sample without enzyme. […] Sample 3 employed the T7 homolog (SEQ ID NO:6) and Sample 4 employed the A7 homolog (SEQ ID NO:5). Results were determined by HPLC as described above. FIG. 8(a) provides the percentage of TERBUTHYLAZINE remaining after a 15 minute exposure to homologs A7, A11, and T7. Samples 1-10 refer to the effect of homolog activity in the presence of 50 uM of: Manganese (1); Mangnesium (2), EDTA (3); cobalt (4); zinc (5); iron (6); copper (7); nickel (8); no metal (9); or no eznyme (10). FIG. 8(b) provides the relative amount of hydroxyterbuthylazine as a measure of TERBUTHYLAZINE degradation for homologs A7 (solid bar), A11 (hatched bar), or T7 (open bar) in the presence or absence of additives 1-10 (supra).

Molecule | degradation of substrate by wild-type AtzA protein (in words) [1] | atrazine degradation activity (in words) [2] | TERBUTHYLAZINE degradation activity (in words) [3]
Nc1nc(N)nc(Cl)n1 [Desethyldesisopropylatrazine, 2-chloro-4,6-diamino-s-triazine] | did not degrade |  | 
CCNc1nc(N)nc(Cl)n1 [Desisopropylatrazine, 2-chloro-4-ethylamino-6-amino-s-triazine] | acts on |  | 
Nc1nc(N)nc(N)n1 [MELAMINE, 2,4,6-triamino-s-triazine] | did not degrade |  | 
CCNc1nc(Cl)nc(NCC)n1 [SIMAZINE, 2-chloro-4,6-diethylamino-s-triazine] | acts on |  | 
CCNc1nc(Cl)nc(NC(C)(C)C)n1 [TERBUTHYLAZINE, 2-chloro-4-(ethylamino)-6-(tertiarybutyl-amino)-1,3,5-triazine] | only poorly degraded |  | 
CCNc1nc(Cl)nc(NC(C)C)n1 [atrazine, 2-chloro-4-(ethylamino)-6-(isopropylamino)-1,3,5-triazine] | acts on |  | 
CC(C)Nc1nc(N)nc(Cl)n1 [desethylatrazine, 2-chloro-4-amino-6-isopropylamino-s-triazine] | acts on |  | 
T7: AtzA homolog, gene SEQ ID NO:4, protein SEQ ID NO:6 (protein) SAATAALIMKASMVTLTPLFSFSLLNCTRKASRSVMSASSWLVTCGMTTQLRCRFFDGVISALRRVTHYWRHIMQTLSIQHGTLVTMDQYRRVLGDSWVHVQDGRIVALGVHAESVPPPADRVIDARGKVVLPGFINAHTHVNQILLRGGPSHGRQFYDWLFNVVYPGQKAMRPEDVAVAVRLYCAEAVRSGITTINENADSAIYPGNIEAAMAVYGEVGVRVVYARMFFDRMDGRIQGYVDALKARSPQVELCSIMEETAVAKDRITALSDQYHGTAGGRISVWPAPATTTAVTVEGMRWAQAFARDRAVMWTLHMAESDHDERIHGMSPADYMECYGLLDERLQVAHCVYFDRKDVRLLHRHNVKVASQVVSNAYLGSGVAPVPEMVERGMAVGIGTDNGNSNDSVNMIGDMKFMAHIHRAVHRDADVLTPEKILEMATIDGARSLGMDHEIGSIETGKRADLILLDLRHPQTTPHHHLAATIVFQAYGNEVDTVLIDGNVVMENRRLSFLPPERELAFLEEAQSRATAILQRANMVANPAWRSLEMTPLLHPPPLEEIAAILARLGLGGGHDLDGYRIAMNAALPSFARVESLVGEGRLRAPASRRSERPE |  | enhanced atrazine degradation activity | better than the wild-type enzyme; also recorded: enhanced TERBUTHYLAZINE degradation activity
A40: AtzA homolog, nucleic acid SEQ ID NO:17, amino acid SEQ ID NO:22 (protein) MQTLSIQHGTLVTMDQYRRVLGDSWVHVQDGRIVALGVHAKSVPPPADRVIDARGKVVLPGFINAHTHVNQILLRGGPSHGRQFYDWLFNVVYPGQKAMRPEDVAVAVRLYCAEAVRSGITTINENADSAIYPGNIEAAMAVYGEVGVRVVYARMFFDRMDGRIQGYVDALKARSPQVELCSIMEETAVAKDRITALSDQYHGTAGGRISVWPAPATTTAVTVEGMRWAQAFARDRAVMWTLHMAESDHDGRIHGMSPAEYMECYGLLDERLQVAHCVYFDRKDVRLLHRHNVKVASQVVSNAYLGSGVAPVPEMVERGMAVGIGTDNGNSNDSVNMIGDMKFMAHIHRAVHRDADVLTPEKILEMATIDGARSLGMDHEIGSIETGKRADLILLDLRHPQTTPHHHLAATIVFQAYGNEVDTVLIDGNVVMENRCLSFLPPERELAFLEGAQSRATAILQRANMVANPAWRSLEMTPLLHPPPLEEIAAILARLG |  | improved rate of catalytic activity | 
A46: AtzA homolog, nucleic acid SEQ ID NO:20, amino acid SEQ ID NO:25 (protein) MQTLSIQHGTLVTMDQYRRVLGDSWVHVQDGRIVALGVHAESVPPPADQVIDARGKVVLPGFINAHTHVNQILLRGGPSHGRQFHDWLFNVVYPGQKAMRPEDVAVAVRLYCAEAVRSGITTINENADSAIYPGNIEAAMAVYGEVGVRVVYARMFFDRMDGRIQGYVDALKARSPQVELCSIMEETAVAKDRITALSDQYHGTAGGRISVWPAPATTTAVTVEGMRWAQAFARDRAVMWTLHMAESDHDGRIHGMSPAEYMECYGLLDERLQVAHCVYFDRKDVRLLHRHNVKVASQVVSNAYLGSGVAPVPEMVERGMAVGIGTDNGNSNDSVNMIGDMKFMAHIHRAVHRDADVLTPEKILEMATIDGARSLGMDHEIGSIETGKRADLILLDLRHPQTTPHHHLAATIVFQAYGNEVDTVLIDGNVVMENRRLSFLPPERELAFLEEAQSRATAILQRANMVANPAWRSLEMTPLLHPPPLEEIAAILARLG |  | improved rate of catalytic activity | capable of better degrading
A44: AtzA homolog, nucleic acid SEQ ID NO:19, amino acid SEQ ID NO:24 (protein) MQTLSIQHGTLVTMDQYRRVLGDSWVHVQDGRIVALGVHAESVPPPADRVIDARGKVVLPGFINAHTHVNQILLRGGPSHGRQFYDWLFNVVYPGQKAMRPEDVAVAVRLYCAEAVRSGITTINENADSAIYPGNIEAAMAVYGEVGVRVVYARMFFDRMDGRIQGYVDALKARSPQVELCSIMEETAVAKDRITALSDQYHGTAGGRISVWPAPATTTAVTVEGMRWAQAFARDRAVMWTLHMAESDHDERIHGMSPAEYMECYGLLDERLQVAHCVYFDRKDVRLLHRHNVKVASQVVSNAYLGSGVAPVPEMVERGMAVGIGTDNGNSNDSVNMIGDMKFMAHIHRAVHRDADVLTPEKILEMATIDGARSLGMDHEIGSIETGKRADLILLDLRHPQTTPHHHLAATIVFQAYGNEVDTVLIDGNVVMENRRLSFLPPERELAFLEEAQSRATAILQRANMVANPAWRSLEMTPLLHPLPLEEIAAILARLG |  | improved rate of catalytic activity | capable of better degrading
A42: AtzA homolog, nucleic acid SEQ ID NO:18, amino acid SEQ ID NO:23 (protein) MQTLSIQHGTLVTMDQYRRVLGDSWVHVQDGRIVALGVHAESVPPPADRVIDARGKVVLPGFINAHTHVNQILLRGGPSHGRQFYDWLFNVVYPGQKAMRPEDVAVAVRLYCAEAVRSGITTINENADSAIYPGNIEAAMAVYGEVGVRVVYARMFFDRMDGRIQGYVDALKARSPQVELCSIMEETAVAKDRITALSDQYHGTAGGRISVWPAPATTTAVTVEGMRWAQAFARDRAVMWTLHMAESDHDERIHGMSPAEYMECHGLLDERLQVAHCVYFDRKDVRLLHRHNVKVASQVVSNAYLGSGVAPVPEMVERGMAMGIGTDNGNSNDSVNMIGDMKFMAHIHRAVHRDADVLTPEKILEMATIDGARSLGMDHEIGSIETGKRADLILLDLRHPQTTPHHHLAATIVFQAYGNEVDTVLIDGNVVMENRRLSFLPPERELAFLEEAQSRATAILQRANMVANPAWRSLEMTPLLHPPPLEEIAAILARLG |  | improved rate of catalytic activity | capable of better degrading
A60: AtzA homolog, nucleic acid SEQ ID NO:21, amino acid SEQ ID NO:26 (protein) MQTLSIQHGTLVTMDQYRRVLGDSWVHVQDGRIVALGVHAESVPPPADRVIDARGKVVLPGFINAHTHVNQILLRGGPSHGRQFYDWLFNVVYPGQKAMRPEDVAVAVRLYCAEAVRSGITTINENADSAIYPGNIEAAMAVYGEVGVRVVYARMFFDRMDRRIQGYVDALKARSPQVELCSIMEETAVAKDRITALSDQYHGTAGGRISVWPAPATTTAVTVEGMRWAQAFARDRAVMWTLHMAESDHDERIHGMSPAEYMECYGLLDERLQVAHCVYFDRKDIRLLHRHNVKVASQAVSNAYLGSGVAPVPEMVERGMAVGIGTDNGNSNDSVNMIGDMKFMAHIHRAVHRDADVLTPEKILEMATIDGARSLGMDHEIGSIETGKRADLILLDLRHPQTTPHHHLAATIVFQAYGNEVDTVLIDGNVVMENRRLSFLPPERELAFLEEAQSRATAILQRANMVANPAWRSLEMTPLLHPPPLEEIAAILAQLG |  | improved rate of catalytic activity | capable of better degrading
